One data set has as its system ROS cells. Briefly: effect of alpha-2 macroglobulin on TDF-1 stimulated alkaline phosphatase activity in a ROS cell assay. Format: cell-based.
Data set [1] deals with T1, alpha-2 macroglobulin (Homo sapiens, UniProt P01023).
T1 sequence (P01023 24-1474): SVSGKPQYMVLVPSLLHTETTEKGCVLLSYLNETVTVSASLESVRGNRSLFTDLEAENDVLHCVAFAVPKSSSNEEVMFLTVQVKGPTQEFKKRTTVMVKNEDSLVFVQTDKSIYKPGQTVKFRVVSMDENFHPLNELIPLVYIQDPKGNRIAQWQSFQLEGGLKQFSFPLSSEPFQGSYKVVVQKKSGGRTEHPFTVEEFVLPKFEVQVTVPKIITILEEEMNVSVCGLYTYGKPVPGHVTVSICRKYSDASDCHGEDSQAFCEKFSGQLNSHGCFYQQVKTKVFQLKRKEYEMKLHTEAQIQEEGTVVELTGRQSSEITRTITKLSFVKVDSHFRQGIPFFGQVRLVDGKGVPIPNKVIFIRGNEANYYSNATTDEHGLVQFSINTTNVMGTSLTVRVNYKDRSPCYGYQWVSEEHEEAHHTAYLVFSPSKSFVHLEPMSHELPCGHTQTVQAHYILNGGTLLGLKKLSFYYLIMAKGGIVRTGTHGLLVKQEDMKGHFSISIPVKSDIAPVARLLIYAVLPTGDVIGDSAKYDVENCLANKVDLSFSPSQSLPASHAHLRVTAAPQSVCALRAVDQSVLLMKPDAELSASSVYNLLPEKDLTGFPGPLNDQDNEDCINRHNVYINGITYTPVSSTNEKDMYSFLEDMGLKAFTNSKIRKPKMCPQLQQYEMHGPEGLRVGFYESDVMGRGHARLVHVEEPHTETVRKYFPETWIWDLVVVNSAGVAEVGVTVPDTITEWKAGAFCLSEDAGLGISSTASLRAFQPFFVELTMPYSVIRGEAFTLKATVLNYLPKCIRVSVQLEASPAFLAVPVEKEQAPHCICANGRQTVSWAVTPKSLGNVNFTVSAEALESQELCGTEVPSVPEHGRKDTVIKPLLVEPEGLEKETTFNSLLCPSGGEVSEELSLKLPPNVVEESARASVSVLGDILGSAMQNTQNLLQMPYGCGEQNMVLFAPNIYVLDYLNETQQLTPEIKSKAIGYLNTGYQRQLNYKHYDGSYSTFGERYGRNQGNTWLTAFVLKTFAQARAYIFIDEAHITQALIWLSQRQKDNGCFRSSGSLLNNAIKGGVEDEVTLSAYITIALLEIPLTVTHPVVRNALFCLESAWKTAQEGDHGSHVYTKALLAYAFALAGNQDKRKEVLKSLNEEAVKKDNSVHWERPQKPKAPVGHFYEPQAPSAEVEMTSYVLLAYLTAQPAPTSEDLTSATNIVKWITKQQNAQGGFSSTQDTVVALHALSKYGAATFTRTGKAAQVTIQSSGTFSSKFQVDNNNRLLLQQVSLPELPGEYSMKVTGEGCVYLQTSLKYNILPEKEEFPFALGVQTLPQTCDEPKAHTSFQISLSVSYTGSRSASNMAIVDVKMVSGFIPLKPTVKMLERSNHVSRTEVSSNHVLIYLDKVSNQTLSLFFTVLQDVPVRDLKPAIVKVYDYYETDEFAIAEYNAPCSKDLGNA
Nature of the data set: competition binding assay with immobilized alpha-2 macroglobulin and labeled and unlabeled TDF-1. To be noted: immobilized alpha-2 macroglobulin. The source says: This N-terminal portion of the protein, which is not part of the crystal structure, is positively charged and likely is highly flexible in solution.

Data set [2] concerns the target alpha-2 macroglobulin. Briefly: competition binding assay, immobilized alpha-2 macroglobulin.
Data set [3] is described as follows: solubility by comparing the partition coefficient of mutein versus wild type hTDF-1 dimer. The data set is classed as physicochemical. To be noted: partition coefficient comparison, surmised result. The source says: The resulting candidate morphogen analogs can be produced using conventional site-directed mutagenesis methodologies, and the effect of the site-directed modification on the solubility of the hTDF-1 dimer can be measured, for example, by comparing the partition coefficient or “salting out properties” of the modified hTDF-1 dimer versus the native hTDF-1 dimer. See, for example, Scopes (1987) in Protein Purification: Principles and Practice, 2nd Edition (Springer-Verlag); and Englard et al. (1990) Meth. Enzymol. 182: 285-300, both incorporated herein by reference.
The enhanced solubility of the resulting morphogen analog is measured by comparing the partition coefficient of the Ala 63->Ser 63 mutein versus wild type hTDF-1 dimer. […] It is contemplated that additional muteins having multiple hydrophobic to hydrophilic substitutions can be produced and characterized using the protocols described in this Example. The biological activity of the resulting morphogen analogs can be determined using one or more of the TDF-1 activity assays described Example 1.

Consider four molecules from patent US20040093164A1, “Computer system and methods for producing morphogen analogs of human TDF-1” (priority 2002, published 2004).

On to “Alpha-2 macroglobulin: protease scavenging protein known to bind proteins in serum and target them to the kidney for clearance”, for which the “interference with TDF-1's ability to stimulate alkaline phosphatase activity” value with ROS cells was “not to interfere”.

Regarding “TDF-1: tissue morphogenic protein Transformation and Differentiation Factor-1, SEQ ID NO:1”, in the data set with alpha-2 macroglobulin [1], the “interaction with alpha-2 macroglobulin” value is reported as “interact specifically”.

Molecule “truncated mature TDF-1, wherein the first 22 amino acids have been cleaved from the mature form of TDF-1 in a standard trypsin digest (ligand)” showed a fold less affinity than TDF-1 with alpha-2 macroglobulin [2] of 10 fold.

B1: Ala 63->Ser 63 mutein: hTDF-1 with the alanine at position 63 mutated to a serine (protein, UniProt P18075 293-431, looked up, variant A63S)
Bone morphogenetic protein 7: STGSKQRSQNRSKTPKNQEALRMANVAENSSSDQRQACKKHELYVSFRDLGWQDWIIAPEGYSAYYCEGECAFPLNSYMNATNHAIVQTLVHFINPETVPKPCCAPTQLNAISVLYFDDSSNVILKKYRNMVVRACGCH
As to B1, the “solubility versus native hTDF-1” value in data set [3] was “higher solubility than native hTDF-1”.
